{"source": "patent US20100056445A1", "about": "“ADIPONECTIN FOR THE TREATMENT AND DIAGNOSIS OF ALBUMINURIA” (THOMAS JEFFERSON UNIVERSITY, priority 2006, published 2010)", "key": {"[1]": {"tested_on": "podocyte monolayer", "test": "Albumin permeability across differentiated podocyte monolayer (Transwell)", "assay_type": "cell-based, mouse", "conditions": "adiponectin (globular or full length) 3 μg/ml, serum free, vs. control", "protocol": "Podocyte cell culture: Conditionally immortalized mouse podocytes were kindly provided by Dr. Peter Mundel (Albert Einstein College of Medicine, Bronx, N.Y.) and were cultured as previously described (27). The cells harbor a temperature-sensitive variant of the SV40 large T antigen (tsA58) that is inducible by γ-interferon and stable at 33° C. but rapidly degraded at 37° C. (27). At 33° C., the large T antigen allows for cellular proliferation. The proliferating cells are maintained in collagen I—coated flasks in RPMI-1640 media supplemented with 10% FBS and 10 units/ml mouse recombinant γ-interferon. When the cells have reached confluence, they are passaged and allowed to differentiate at 37° C. for 8-10 days without γ-interferon in Dulbecco's modified Eagle's medium containing 5.5 mmol/l glucose and 5% FCS. For the permeability assay a modification of a previously published protocol (28) was adopted. Differentiated podocytes (0.2×10^6 podocytes/well) plated on collagen coated 24 well Transwell plates (Corning) were serum-starved ovenight when confluent. Cells were then modulated with globular adiponectin (PepROTech Inc.) with or without 1 mM adenosine 9-p-D-arabinofuranoside (ARA-A) (Sigma, St. Louis, Mo.), for 24 h. Cells were then washed twice with PBS supplemented with 1 mM MgCl2 and 1 mM CaCl2. The upper compartment was refilled with 0.25 ml RPMI 1640 alone and the lower compartment with 0.5 ml RPMI 1640 supplemented with 40 mg/ml BSA and incubated for 2 hour at 37° C. Total protein concentration in the upper compartment was determined using a Bio-Rad protein assay (Bio-Rad Laboratories, Hercules, Calif.)."}, "[2]": {"tested_on": "Adiponectin KO (Ad−/−) mice", "test": "Podocyte foot process effacement by electron microscopy in adiponectin KO mice", "assay_type": "in vivo, mouse", "conditions": "gAd treatment, EM", "protocol": "Adiponectin administration and animal studies: The mice were treated with 25 μg of recombinant human globular domain adiponectin (gAd; PepROTech, Rocky Hill, N.J.) subcutaneously twice daily for 10 consecutive days. The control animals were given PBS alone. 24-hour urines from each mouse were collected twice: one week before the injections and on the last day of the injections. The urine albumin and creatinine were measured with a mouse Albuwell ELISA kit and a Creatinine Companion kit (Exocell, Philadelphia, Pa.) (25,26). The mice were sacrificed five hours after the final gAd injection under anesthesia. Portions of kidney cortex were fixed in buffered formalin and embedded in paraffin. […]\nInterventional animal studies: The mice were treated with 25 μg of recombinant human globular domain adiponectin gAd (PepROTech, Rocky Hill, N.J.), administered 25 μg/mouse twice a day for 10 consecutive days or full-length adiponectin (fAd) was administered using an AAV vector (AAV2/8 CMV fAd virus 4×1011 GC/mouse for 10 days). […] The urine albumin and creatinine were measured with a mouse Albuwell ELISA kit and a Creatinine Companion kit (Exocell, Philadelphia, Pa.) (26, 25). As an index of oxidant stress timed urine collections were also analyzed for hydrogen peroxide by Amplex red assay (Invitrogen/Molecular Probes, Carlsbad, Calif.) following the manufacturer's protocol. […]"}, "[3]": {"tested_on": "Nox4", "test": "Nox4 protein in cultured podocytes (immunoblot, confocal)", "assay_type": "cell-based, mouse", "conditions": "adiponectin for 16 h"}}, "note": "“Also recorded” adds a separate entry of the source."}
{"molecule": "adiponectin: 30 kDa adipocyte-secreted protein; in the first series of tests the recombinant globular domain was used, later gAd or fAd (protein, UniProt Q15848 19-244, looked up) Adiponectin: ETTTQGPGVLLPLPKGACTGWMAGIPGHPGHNGAPGRDGRDGTPGEKGEKGDPGLIGPKGDIGETGVPGAEGPRGFPGIQGRKGEPGEGAYVYRSAFSVGLETYVTIPNMPIRFTKIFYNQQNHYDGSTGKFHCNIPGLYYFAYHITVYMKDVKVSLFKKDKAMLFTYDQYQENNVDQASGSVLLHLEVGDQVWLQVYGEGERNGLYADNDNDSTFTGFLLYHDTN", "values": [{"measurement": "Permeability of albumin across a podocyte monolayer", "setting": "[1]", "result": "reduced"}, {"measurement": "Podocyte foot process fusion / effacement", "setting": "[2]", "result": "improved podocyte foot process effacement; also recorded: restored podocyte foot processes"}, {"measurement": "Podocyte Nox4 protein", "setting": "[3]", "result": "sufficient to suppress podocyte Nox4"}]}
